Reference: the supplement of paper PMC10201428
± gives the standard deviation of the averaged measurements.

B1: library; a variant is named by its letters at N, in order (parent)
chain: AATGTTGTTGATGCAACCATAAAGTGATATTTAATAATTATTTATAATCAGCAACTTAACCACAAAACAACCATATATTGATATNTCACAAAACAACCATAANTTGATATTTTTGTGAATCGAGTATTTCAGCAAAACTACTGCAGTAAGAA

Tests used:
[1] = variants of: B1; assay: relative integration efficiency (T-LR orientation) vs wild-type transposon end (log2 (normalized fold change)); transposon end mutated: left end; higher = more efficient transposition; conditions: with VchCAST RNA-guided transposition machinery (E. coli BL21(DE3) host, lacZ target)
How it was run: (§1)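 Barcode abundances in input plasmids and in genomic integration junctions were obtained by PCR amplification and Illumina sequencing. These came from E. coli BL21(DE3) co-transformed with a T7-driven effector plasmid and a pUC57 donor carrying 1549 left-end or 1849 right-end transposon variants, then plated with 0.1 mM IPTG at 37°C for 18 h. Relative integration efficiency is the output/input fold change, normalised to reference barcodes and log-transformed.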

[2] = variants of: B1; assay: relative integration efficiency (T-RL orientation) vs wild-type transposon end (log2 (normalized fold change)); transposon end mutated: left end; higher = more efficient transposition; conditions: with VchCAST RNA-guided transposition machinery (E. coli BL21(DE3) host, lacZ target)
How it was run: as §1

Row | Variant | relative integration efficiency (log2) [1] | relative integration efficiency (log2) [2]
1 | CG A119C T120G C121A G122T A123C G124T T125G | -0.964 ± 0.063 | -0.304 ± 0.022
2 | CG A81C | -0.551 ± 0.4 | -0.479 ± 0.28
3 | CG T31A T32A A33T A34T | 0.0738 ± 0.43 | -0.0923 ± 0.16
4 | CG A40C T41G T42G T43G | -0.1 ± 0.062 | 0.139 ± 0.11
5 | TA A23G G24T A33T T76A T78G C87A A96C T112G T113C | 0.535 ± 0.16 | 0.327 ± 0.1
6 | CG C98A A99C T100G A101C | -1.33 ± 0.029 | -2.27 ± 0.92
7 | CG T100C | -2.04 ± 0.83 | -1.27 ± 0.52
8 | TA G24A T30A T76A A77G C87T T104A T110A T113A | 0.503 ± 0.28 | -0.582 ± 0.57
9 | CG A109C T110G | -1.25 ± 1.3 | -0.936 ± 0.53
10 | CG T45A A46T A47T T48A | 0.244 ± 0.78 | 0.0806 ± 0.061
11 | TA A22T G24T T31C A33C T76A A77G C87T T104G T113A | -1.13 ± 0.85 | -1.41 ± 0.56
12 | CG A16C G24T T32G A33C | -0.475 ± 0.83 | -0.332 ± 0.18
13 | CC T104A T105A G106C | -2.2109 ± 0.0012 | -1.71 ± 0.67
14 | CG A62T C63G | -0.0229 ± 0.67 | 0.275 ± 0.072
15 | CG A23C | 0.494 ± 0.15 | -0.467 ± 0.23
16 | CG T12G | -0.01 ± 0.2 | -0.917 ± 0.57
17 | CG T12A | 0.00533 ± 0.2 | -0.099 ± 0.056
18 | CG T28G A29C | -1.26 ± 0.97 | -1.24 ± 0.55
19 | CG A53G | 0.388 ± 0.41 | -0.054 ± 0.011
20 | CG A53T | 0.318 ± 0.24 | 0.0743 ± 0.088

Row | Variant | relative integration efficiency (log2) [1] | relative integration efficiency (log2) [2]
21 | CG T76A | 0.179 ± 0.069 | 0.0494 ± 0.062
22 | CG A99C T100G A101C A102C | -1.07 ± 1.4 | -1.82 ± 0.89
23 | CG T32A A33T A34T T35A | 0.141 ± 0.33 | -0.0669 ± 0.14
24 | TA A16C G24T T30A A70C T76A T86G T104A T110A T113A | -0.858 ± 0.25 | -0.764 ± 0.36
25 | TA A70C T76A T84A C87A A96C T110A T113A | 0.233 ± 0.15 | 0.0312 ± 0.25
26 | TA A16C G24T T30A T76A A77G C87T A96C T110A T113A | 0.1 ± 1.2 | -0.0467 ± 0.48
27 | CG T79G G80T A81C T82G | -2.43 ± 1.1 | -2.68 ± 0.95
28 | CG A88C C89A | 0.0423 ± 0.026 | 0.0174 ± 0.062
29 | CG A88C | -0.0509 ± 0.39 | -0.148 ± 0.082
30 | CG A44G A46G T48G A50G C52A A53T C55A T56C T57A | -3.63 ± 2.8 | -4.04 ± 1.1
31 | CG A83T | -0.465 ± 0.53 | -0.189 ± 0.057
32 | CG G80C | -1.47 ± 0.43 | -2.06 ± 0.66
33 | CA A96C T110A T113A | 0.444 ± 0.43 | 0.00902 ± 0.34
34 | TA G24A T30A T76A A77G C87T A96C T110A T113A | 0.553 ± 0.26 | 0.0249 ± 0.25
35 | CA A16C G24T T30A T104G T113A | -0.245 ± 0.15 | -0.185 ± 0.23
36 | CG T31A | 0.0948 ± 0.84 | -0.128 ± 0.14
37 | CG T31G | -0.35 ± 0.1 | -0.221 ± 0.21
38 | TA A16C G24T T32G A33C T76A A77G C87T A96C T110A T113A | -1.08 ± 1.6 | -0.54 ± 0.44
39 | CA A22T G24T T31C A33C T104G T113A | -0.697 ± 0.046 | -0.629 ± 0.23
40 | TG T76A A77G C87T | 0.266 ± 0.15 | -0.247 ± 0.35

Row | Variant | relative integration efficiency (log2) [1] | relative integration efficiency (log2) [2]
41 | CG C68G A69T A70T C71G | -0.963 ± 0.71 | -1.93 ± 0.91
42 | CG A33C | 0.29 ± 0.052 | 0.172 ± 0.082
43 | CG C72G A73T T74A A75T | -1.75 ± 0.9 | -1.77 ± 0.81
44 | CG C97G C98G A99T T100A | -0.482 ± 0.85 | -1.36 ± 0.79
45 | CG A36T A37T T38A T39A | 0.111 ± 0.38 | 0.0771 ± 0.077
46 | CG C89A A90C | 0.0275 ± 0.49 | -0.181 ± 0.15
47 | CG T12A G13A T30A T31C T32A A77C | -1.73 ± 0.73 | -0.517 ± 0.24
48 | CG C68T | -1.08 ± 0.81 | -0.627 ± 0.41
49 | CG T9C | 0.146 ± 0.38 | 0.242 ± 0.0041
50 | TA A16C G24T T32G A33C T76A T78G C87A T104G T113A | -0.174 ± 1.1 | -0.675 ± 0.24
51 | TA A16C G24T T30A T76A T78G C87A A96C T110A T113A | 0.235 ± 1.1 | 0.17 ± 0.13
52 | CG A64T A65T A66T A67T | -0.239 ± 0.35 | -0.0292 ± 0.19
53 | CG C63A | 0.438 ± 0.02 | 0.237 ± 0.012
54 | CT T100G A101C A102C | -1.43 ± 0.25 | -2.43 ± 0.88
55 | CG T48C | -0.224 ± 0.18 | -0.219 ± 0.15
56 | CG T48G | 0.0472 ± 0.93 | 0.24 ± 0.2
57 | CG C14G C68G C94G | -2.2 ± 0.43 | -2.49 ± 1.3
58 | CG T78A T79A | -0.257 ± 0.57 | -0.058 ± 0.35
